The record followed here is patent publication US20190100597A1 (IGM BIOSCIENCES, published 2019).

Experiment in all cases: cell-based or functional assay
Experiment [1] concerns the target T1, human CD20 on CD20-expressing cell lines (human, UniProt P11836 1-297).
T1 sequence: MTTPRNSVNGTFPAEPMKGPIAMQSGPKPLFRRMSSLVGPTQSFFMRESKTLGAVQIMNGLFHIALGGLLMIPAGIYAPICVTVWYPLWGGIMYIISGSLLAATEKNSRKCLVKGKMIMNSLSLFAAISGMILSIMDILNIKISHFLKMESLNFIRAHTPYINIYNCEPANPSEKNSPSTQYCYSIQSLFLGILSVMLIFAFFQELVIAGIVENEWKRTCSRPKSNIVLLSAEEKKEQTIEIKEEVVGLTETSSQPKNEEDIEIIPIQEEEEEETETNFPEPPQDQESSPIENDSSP

Experiment [2] deals with T1, human CD20 on CD20-expressing cell lines. This is another data set of the same source.
Experiment [3] has the same target. This is another data set of the same source.
The target is the same in experiment [4]. This is another data set of the same source.

A value given as a limit tells only on which side of the number the result lay.

B1: 1.5.3 IgG (IgG1) (antibody, V domains shown)
VH: EVQLVQSGAEVKKPGESLKISCKGSGYSFTSYWIGWVRQMPGKGLEWMGIIYPGDSDTRYSPSFQGQVTISADKSITTAYLQWSSLKASDTAMYYCARHPSYGSGSPNFDYWGQGTLVTVSS
VL: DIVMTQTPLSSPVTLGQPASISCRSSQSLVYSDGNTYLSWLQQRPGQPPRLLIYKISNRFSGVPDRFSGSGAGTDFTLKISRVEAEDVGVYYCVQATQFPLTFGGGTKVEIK
Turning to B1, in experiment [1], the “CDC EC50 on DOHH-2 cells” value was found to be 4.6 nM and the “CDC EC50 on Z-138 cells” value is > 100 nM.

B2: rituximab (IgG1) (antibody, V domains shown)
VH: QVQLQQPGAELVKPGASVKMSCKASGYTFTSYNMHWVKQTPGRGLEWIGAIYPGNGDTSYNQKFKGKATLTADKSSSTAYMQLSSLTSEDSAVYYCARSTYYGGDWYFNVWGAGTTVTVSA
VL: QIVLSQSPAILSASPGEKVTMTCRASSSVSYIHWFQQKPGSSPKPWIYATSNLASGVPVRFSGSGSGTSYSLTISRVEAEDAATYYCQQWTSNPPTFGGGTKLEIKR
On to B2, for which, in experiment [1], the “CDC EC50 on DOHH-2 cells” value came out at 22 nM and the “CDC EC50 on Z-138 cells” value is > 100 nM. Further, in experiment [2], the “KILR cytotoxicity assay, potency relative to the 1.5.3 IgM antibodies” value was ≥ 30 fold less potent. The “CDC (IC50) on Raji cells” value in experiment [3] was > 50 µg/mL.

B3: Rituxan IgM+V15J (bispecific anti-CD20 x anti-CD3 IgM pentamer) (bispecific antibody)
heavy: QVQLQQPGAELVKPGASVKMSCKASGYTFTSYNMHWVKQTPGRGLEWIGAIYPGNGDTSYNQKFKGKATLTADKSSSTAYMQLSSLTSEDSAVYYCARSTYYGGDWYFNVWGAGTTVTVSSGSASAPTLFPLVSCENSPSDTSSVAVGCLAQDFLPDSITFSWKYKNNSDISSTRGFPSVLRGGKYAATSQVLLPSKDVMQGTDEHVVCKVQHPNGNKEKNVPLPVIAELPPKVSVFVPPRDGFFGNPRKSKLICQATGFSPRQIQVSWLREGKQVGSGVTTDQVQAEAKESGPTTYKVTSTLTIKESDWLSQSMFTCRVDHRGLTFQQNASSMCVPDQDTAIRVFAIPPSFASIFLTKSTKLTCLVTDLTTYDSVTISWTRQNGEAVKTHTNISESHPNATFSAVGEASICEDDWNSGERFTCTVTHTDLPSPLKQTISRPKGVALHRPDVYLLPPAREQLNLRESATITCLVTGFSPADVFVQWMQRGQPLSPEKYVTSAPMPEPQAPGRYFAHSILTVSEEEWNTGETYTCVVAHEALPNRVTERTVDKSTGKPTLYNVSLVMSDTAGTCY
light: QIVLSQSPAILSASPGEKVTMTCRASSSVSYIHWFQQKPGSSPKPWIYATSNLASGVPVRFSGSGSGTSYSLTISRVEAEDAATYYCQQWTSNPPTFGGGTKLEIKRTVAAPSVFIFPPSDEQLKSGTASVVCLLNNFYPREAKVQWKVDNALQSGNSQESVTEQDSKDSTYSLSSTLTLSKADYEKHKVYACEVTHQGLSSPVTKSFNRGEC
chain: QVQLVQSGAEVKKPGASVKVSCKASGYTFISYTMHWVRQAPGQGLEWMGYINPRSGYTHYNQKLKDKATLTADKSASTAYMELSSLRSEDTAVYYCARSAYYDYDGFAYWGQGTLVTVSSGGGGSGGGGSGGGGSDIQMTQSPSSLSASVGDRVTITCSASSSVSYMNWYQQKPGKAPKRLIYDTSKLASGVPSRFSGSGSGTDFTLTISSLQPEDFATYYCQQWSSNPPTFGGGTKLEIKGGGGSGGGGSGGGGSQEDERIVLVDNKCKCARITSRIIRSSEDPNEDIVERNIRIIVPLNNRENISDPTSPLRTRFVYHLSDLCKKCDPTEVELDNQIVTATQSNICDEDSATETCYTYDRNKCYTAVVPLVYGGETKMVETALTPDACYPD
Consider B3, for which, in experiment [4], the “T-cell directed B-cell killing, LDH release, EC50 on DB cells” value was found to be 0.0005 µg/mL; the “T-cell directed B-cell killing, LDH release, EC50 on DOHH2 cells” value amounted to 0.013 µg/mL; the “T-cell directed B-cell killing, LDH release, EC50 on Z-138 cells” value was 0.03 µg/mL.

B4: 1.5.3 IgM+V15J (bispecific anti-CD20 x anti-CD3 IgM pentamer) (bispecific antibody)
heavy: EVQLVQSGAEVKKPGESLKISCKGSGYSFTSYWIGWVRQMPGKGLEWMGIIYPGDSDTRYSPSFQGQVTISADKSITTAYLQWSSLKASDTAMYYCARHPSYGSGSPNFDYWGQGTLVTVSSGSASAPTLFPLVSCENSPSDTSSVAVGCLAQDFLPDSITFSWKYKNNSDISSTRGFPSVLRGGKYAATSQVLLPSKDVMQGTDEHVVCKVQHPNGNKEKNVPLPVIAELPPKVSVFVPPRDGFFGNPRKSKLICQATGFSPRQIQVSWLREGKQVGSGVTTDQVQAEAKESGPTTYKVTSTLTIKESDWLSQSMFTCRVDHRGLTFQQNASSMCVPDQDTAIRVFAIPPSFASIFLTKSTKLTCLVTDLTTYDSVTISWTRQNGEAVKTHTNISESHPNATFSAVGEASICEDDWNSGERFTCTVTHTDLPSPLKQTISRPKGVALHRPDVYLLPPAREQLNLRESATITCLVTGFSPADVFVQWMQRGQPLSPEKYVTSAPMPEPQAPGRYFAHSILTVSEEEWNTGETYTCVVAHEALPNRVTERTVDKSTGKPTLYNVSLVMSDTAGTCY
light: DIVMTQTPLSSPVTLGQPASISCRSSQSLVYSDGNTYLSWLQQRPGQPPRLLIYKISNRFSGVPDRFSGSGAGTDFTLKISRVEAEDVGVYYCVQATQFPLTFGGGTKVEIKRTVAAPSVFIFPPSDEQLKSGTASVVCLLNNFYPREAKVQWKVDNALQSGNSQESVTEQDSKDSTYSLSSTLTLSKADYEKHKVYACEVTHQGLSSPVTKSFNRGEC
chain: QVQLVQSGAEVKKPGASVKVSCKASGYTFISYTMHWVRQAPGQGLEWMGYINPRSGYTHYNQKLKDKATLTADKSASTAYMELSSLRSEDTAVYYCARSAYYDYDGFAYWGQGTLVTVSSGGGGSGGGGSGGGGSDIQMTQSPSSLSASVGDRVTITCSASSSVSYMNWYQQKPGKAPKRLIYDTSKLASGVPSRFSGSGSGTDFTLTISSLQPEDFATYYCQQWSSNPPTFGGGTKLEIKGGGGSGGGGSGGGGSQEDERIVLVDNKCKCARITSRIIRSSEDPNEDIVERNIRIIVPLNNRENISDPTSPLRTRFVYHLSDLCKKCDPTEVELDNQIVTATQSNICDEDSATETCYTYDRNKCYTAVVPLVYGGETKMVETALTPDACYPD
B4: in experiment [4], the “T-cell directed B-cell killing, LDH release, EC50 on DB cells” value turned out to be 0.0004 µg/mL; the “T-cell directed B-cell killing, LDH release, EC50 on DOHH2 cells” value stood at 0.012 µg/mL; the “T-cell directed B-cell killing, LDH release, EC50 on Z-138 cells” value is 0.033 µg/mL. The “T-cell directed B-cell killing, LDH release, EC50 on DB cells (molar)” value in experiment [2] worked out at 0.0004 nM.
